# Assay results reported in publication doi:10.1101/2024.11.26.625467.
# Target: KS17 N2 NA (neuraminidase head of H3N2 A/Kansas/14/2017) (influenza A virus H3N2 A/Kansas/14/2017)
# Test: cryo-EM structure
substance,measurement,value
KS17 N2 NA (neuraminidase head of H3N2 A/Kansas/14/2017) (domain or fragment),stoichiometry N,4
